Assay results: patent US20210386875

System: ^111In-labeled DTPA-pMMP9 peptide on non-radioactive 10 nm gold nanoparticles

Chain of MMP9 (chain, as listed by the source): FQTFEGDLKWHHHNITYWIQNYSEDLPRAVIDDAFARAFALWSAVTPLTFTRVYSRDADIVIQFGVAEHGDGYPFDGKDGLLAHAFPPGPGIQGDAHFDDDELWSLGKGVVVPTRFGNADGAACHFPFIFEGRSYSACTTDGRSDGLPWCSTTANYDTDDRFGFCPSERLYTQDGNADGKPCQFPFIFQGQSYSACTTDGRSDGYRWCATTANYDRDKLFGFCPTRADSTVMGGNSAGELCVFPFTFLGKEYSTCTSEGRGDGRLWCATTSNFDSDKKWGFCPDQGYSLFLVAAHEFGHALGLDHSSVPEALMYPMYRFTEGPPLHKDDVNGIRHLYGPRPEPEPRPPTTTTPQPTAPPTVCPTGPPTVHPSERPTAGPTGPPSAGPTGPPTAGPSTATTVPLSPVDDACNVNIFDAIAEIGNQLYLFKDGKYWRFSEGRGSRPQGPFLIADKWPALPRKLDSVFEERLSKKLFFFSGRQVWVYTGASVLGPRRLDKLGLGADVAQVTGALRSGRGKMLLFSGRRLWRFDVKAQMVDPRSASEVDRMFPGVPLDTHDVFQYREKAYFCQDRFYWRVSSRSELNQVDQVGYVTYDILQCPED

Q: Which “percent of ^111In cleaved from the nanoparticle after 48 hours incubation with MMP9 (16% without MMP9)” value does the source give for MMP9 here?
A: 48% ^111In was cleaved from the nanoparticle compared to only 16% without MMP9
